Where “and” joins values, the source holds several entries; their conditions need not be identical. Equal entries are not always repeated.
Legend:
[1] = target: the molecule itself; test: two-photon scanning number and brightness (sN&B) fluctuation microscopy; live cultured rat hippocampal neurons, SNAP-tag labelled with Alexa488, with agonist and PAM (10 nM LY379268 + 3 μM BINA) during labelling and imaging; numbers for 90-600 subunits/Veff
[2] = target: the molecule itself; test: two-photon scanning number and brightness (sN&B) fluctuation microscopy; live cultured rat hippocampal neurons, SNAP-tag labelled with Alexa488, incubated with 150 μM CuP, bound to antagonist (400 nM LY341495); 90-600 subunits/Veff; apparent stoichiometry (lower with CuP)
[3] = target: the molecule itself; test: two-photon scanning number and brightness (sN&B) fluctuation microscopy; live cultured rat hippocampal neurons, SNAP-tag labelled with Alexa488, with antagonist (400 nM LY341495) during labelling and imaging; numbers for 90-600 subunits/Veff
[4] = target: the molecule itself; test: two-photon scanning number and brightness (sN&B) fluctuation microscopy; live cultured rat hippocampal neurons, SNAP-tag labelled with Alexa488, incubated with 150 μM CuP for the last 10 min of labelling, imaged in the absence of ligand; 90-600 subunits/Veff; apparent stoichiometry (lower with CuP)
[5] = target: the molecule itself; test: two-photon scanning number and brightness (sN&B) fluctuation microscopy; live cultured rat hippocampal neurons, cell-surface SNAP-tagged receptor labelled with Alexa488, imaging buffer pH 7.3, no ligand (basal); numbers for expression of 90-600 subunits/Veff; brightness normalised to monomeric Alexa488

B1: metabotropic glutamate receptor type 2 (mGlu2), wild type, with a SNAP-tag fused to the extracellular N-terminus (HA-ST-mGlu2) (receptor, rat, UniProt P31421 19-872, looked up)
chain: EGPAKKVLTLEGDLVLGGLFPVHQKGGPAEECGPVNEHRGIQRLEAMLFALDRINRDPHLLPGVRLGAHILDSCSKDTHALEQALDFVRASLSRGADGSRHICPDGSYATHSDAPTAVTGVIGGSYSDVSIQVANLLRLFQIPQISYASTSAKLSDKSRYDYFARTVPPDFFQAKAMAEILRFFNWTYVSTVASEGDYGETGIEAFELEARARNICVATSEKVGRAMSRAAFEGVVRALLQKPSARVAVLFTRSEDARELLAATQRLNASFTWVASDGWGALESVVAGSERAAEGAITIELASYPISDFASYFQSLDPWNNSRNPWFREFWEERFHCSFRQRDCAAHSLRAVPFEQESKIMFVVNAVYAMAHALHNMHRALCPNTTHLCDAMRPVNGRRLYKDFVLNVKFDAPFRPADTDDEVRFDRFGDGIGRYNIFTYLRAGSGRYRYQKVGYWAEGLTLDTSFIPWASPSAGPLPASRCSEPCLQNEVKSVQPGEVCCWLCIPCQPYEYRLDEFTCADCGLGYWPNASLTGCFELPQEYIRWGDAWAVGPVTIACLGALATLFVLGVFVRHNATPVVKASGRELCYILLGGVFLCYCMTFVFIAKPSTAVCTLRRLGLGTAFSVCYSALLTKTNRIARIFGGAREGAQRPRFISPASQVAICLALISGQLLIVAAWLVVEAPGTGKETAPERREVVTLRCNHRDASMLGSLAYNVLLIALCTLYAFKTRKCPENFNEAKFIGFTMYTTCIIWLAFLPIFYVTSSDYRVQTTTMCVSVSLSGSVVLGCLFAPKLHIILFQPQKNVVSHRAPTSRFGSAAPRASANLGQGSGSQFVPTVCNGREVVDSTTSSL
modifications: Alexa488 (BG-Alexa488) covalently on the SNAP-tag
notes: metabotropic glutamate receptor 2 (mGlu2), rat, wild type; HA-tag and SNAP-tag inserted just after the signal peptide; pRK5 plasmid, CMV promoter exchanged for the synapsin-1 promoter; also called mGlu2 receptor; wild type receptor; source: cultured rat hippocampal neurons, transfected (Lipofectamine 2000), on live cells; not shown: SNAP-tag, N-terminal, kept
- stoichiometry N [1]: 4 subunits/complex
- stoichiometry N [2]: 3 subunits/complex
- stoichiometry N [3]: 3.7 subunits/complex
- stoichiometry N [4]: 1.7 subunits/complex
- stoichiometry N [5]: 2.2 subunits per complex and 1.66 subunits/complex

Source: PMC6039492, “Oligomerization of a G protein-coupled receptor in neurons controlled by its structural dynamics” (Scientific Reports, 2018)
